In US20230132049A1 (Genmab, published 2023):
Read-outs that look alike come from different tables or passages of the source.

Experiments:
human CD30 [1] = biological target: T1, human CD30 (human, UniProt P28908 19-595); experiment: flow cytometry on SU-DHL-1 cells
T1 construct: Endogenous on HL, ALCL and NHL tumor cell lines, or full-length huCD30 (Uniprot P28908) transiently expressed in Expi293F or HEK293 cells; also called huCD30; TNFRSF8
T1 sequence: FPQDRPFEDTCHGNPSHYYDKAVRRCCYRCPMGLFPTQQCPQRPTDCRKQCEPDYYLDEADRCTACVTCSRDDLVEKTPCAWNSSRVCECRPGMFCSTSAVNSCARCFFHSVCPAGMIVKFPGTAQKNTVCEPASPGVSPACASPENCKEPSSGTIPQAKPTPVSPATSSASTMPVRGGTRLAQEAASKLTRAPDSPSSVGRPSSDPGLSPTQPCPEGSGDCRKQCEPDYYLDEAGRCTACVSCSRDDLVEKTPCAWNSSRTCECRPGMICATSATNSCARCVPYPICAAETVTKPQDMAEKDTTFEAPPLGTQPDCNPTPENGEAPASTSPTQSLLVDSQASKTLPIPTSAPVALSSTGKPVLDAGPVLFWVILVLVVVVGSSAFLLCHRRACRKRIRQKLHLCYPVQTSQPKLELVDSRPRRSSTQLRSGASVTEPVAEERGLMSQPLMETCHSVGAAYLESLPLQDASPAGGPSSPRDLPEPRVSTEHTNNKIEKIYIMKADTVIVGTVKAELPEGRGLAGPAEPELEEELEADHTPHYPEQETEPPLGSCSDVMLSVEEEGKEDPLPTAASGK
Description: Binding of CD3×CD30 bispecific antibodies to two CD30-expressing human tumor cell lines SU-DHL-1 (ALCL; ATCC, cat. no. ACC 356) and HDLM-2 (HL; ATCC, cat. no. CRL-2965) was analyzed by flow cytometry.
(§1) Cells (3×10⁴ cells/well) were incubated in polystyrene 96-well round-bottom plates (Greiner bio-one, cat. no. 650180) with serial dilutions of antibodies (range 0.0046 to 10 μg/mL in 3-fold dilution steps) in 50 μL staining buffer at 4° C. for 30 min. After washing twice in staining buffer, cells were incubated with 50 μL secondary antibody at 4° C. for 30 min. […] Next, cells were washed twice in staining buffer, resuspended in 100 μL staining buffer supplemented with TO-PRO-3 iodide (Thermo Fisher Scientific; cat. no. T3605; 1:8000 dilution) and analyzed on a FACSCelesta flow cytometer (BD Biosciences, USA). Live cells were gated based on FSC/SSC and absence of TOPRO-3 staining. Binding curves were analyzed by non-linear regression of log-transformed data (sigmoidal dose-response with variable slope, four parameters) using GraphPad Prism V7.02 software (GraphPad Software, San Diego, Calif., USA).

[2] = biological target: T2, rhesus monkey (Macaca mulatta) CD30 (rhesus monkey, UniProt P28908 19-595 (human entry)); experiment: flow cytometry on Expi293F cells transfected with rhesus monkey CD30
T2 construct: Full-length construct expressed in Expi293F cells; also called mmCD30
T2 chain: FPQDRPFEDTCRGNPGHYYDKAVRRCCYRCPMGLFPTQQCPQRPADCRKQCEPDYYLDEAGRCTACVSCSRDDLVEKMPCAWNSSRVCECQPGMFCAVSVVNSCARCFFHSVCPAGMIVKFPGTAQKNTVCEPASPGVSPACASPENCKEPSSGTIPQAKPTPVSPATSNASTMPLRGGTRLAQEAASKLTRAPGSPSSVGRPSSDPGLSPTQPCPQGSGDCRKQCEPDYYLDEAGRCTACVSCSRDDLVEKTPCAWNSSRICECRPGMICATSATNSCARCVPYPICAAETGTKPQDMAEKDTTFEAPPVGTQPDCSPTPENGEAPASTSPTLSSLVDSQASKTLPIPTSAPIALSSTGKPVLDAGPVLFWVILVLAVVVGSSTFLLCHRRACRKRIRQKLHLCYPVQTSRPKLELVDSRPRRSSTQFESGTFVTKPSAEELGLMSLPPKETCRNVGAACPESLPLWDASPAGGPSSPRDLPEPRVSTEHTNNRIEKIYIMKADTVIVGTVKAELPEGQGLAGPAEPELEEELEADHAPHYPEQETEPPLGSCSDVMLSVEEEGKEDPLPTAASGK

human CD30 [3] = biological target: T1, human CD30; experiment: flow cytometry on Expi293F cells transfected with human CD30
Description: Cells (3×10⁴ cells/well) were incubated in polystyrene 96-well round-bottom plates (Thermo Scientific, cat. no. 163320) with serial dilutions of antibodies (ranging from 0.0002 to 50 μg/mL in 4-fold dilution steps) in 50 μL staining buffer at 4° C. for 30 min. Experiments were performed in technical duplicate. After washing twice in staining buffer, cells were incubated in 50 μL secondary antibody at 4° C. for 30 min. […] Cells were washed twice in staining buffer, resuspended in 30 μL staining buffer containing 0.4% EDTA and the ToPro-3 viability marker (Invitrogen, cat. no. T3605) diluted 1:10,000. Cells were analyzed on an iQue Screener (Intellicyt Corporation, USA). Binding curves were analyzed using non-linear regression (sigmoidal dose-response with variable slope) using GraphPad Prism V9.0.0 software (GraphPad Software, San Diego, Calif., USA).

[4] = biological target: T2, rhesus monkey (Macaca mulatta) CD30; experiment: flow cytometry on Expi293F cells transfected with rhesus monkey CD30
human CD30 [5] = biological target: T1, human CD30; experiment: flow cytometry on DEL cells
human CD30 [6] = biological target: T1, human CD30; experiment: flow cytometry on NCEB-1 cells
Description: as §1

human CD30 [7] = biological target: T1, human CD30; experiment: cell-based or functional assay
[8] = biological target: T2, rhesus monkey (Macaca mulatta) CD30; experiment: flow cytometry on Expi293F cells transfected with rhesus monkey CD30
[9] = biological target: T2, rhesus monkey (Macaca mulatta) CD30; experiment: as above

B1: IgG1-CD30-hAC10-FEAR (antibody, V domains shown)
VH: QVQLVQSGAEVKKPGASVKVSCKASGYTFTDYYITWVRQAPGQGLEWMGWIYPGSGNTKYNEKFKGRVTMTRDTSISTAYMELSRLRSDDTAVYYCANYGNYWFAYWGQGTLVTVSS
VL: DIVMTQSPDSLAVSLGERATINCKASQSVDFDGDSYMNWYQQKPGQPPKLLIYAASNLESGVPDRFSGSGSGTDFTLTISSLQAEDVAVYYCQQSNEDPWTFGQGTKVEIKR
notes: Monospecific, bivalent parental antibody
In the case of B1, the “EC50 (read off the curve)” value (human CD30 [1]) is reported as roughly 0.05 mg/L and the binding result [2] is reported as “binds”.

B2: IgG1-CD30-HRS-3-FEAR (antibody, V domains shown)
VH: QVQLQQSGAELARPGASVKMSCKASGYTFTTYTIHWVRQRPGHDLEWIGYINPSSGYSDYNQNFKGKTTLTADKSSNTAYMQLNSLTSEDSAVYYCARRADYGNYEYTWFAYWGQGTTVTVSS
VL: DIVMTQSPKFMSTSVGDRVTVTCKASQNVGTNVAWFQQKPGQSPKVLIYSASYRYSGVPDRFTGSGSGTDFTLTISNVQSEDLAEYFCQQYHTYPLTFGGGTKLEINR
notes: as for B1
With B2 the “EC50 (read off the curve)” value (human CD30 [3]) was roughly 0.06 mg/L and the “EC50 (read off the curve)” value [4] was roughly 0.1 mg/L.

B3: IgG1-CD30-MDX060-FERR (antibody)
heavy: QVQLQQWGAGLLKPSETLSLTCAVYGGSFSAYYWSWIRQPPGKGLEWIGDINHGGGTNYNPSLKSRVTISVDTSKNQFSLKLNSVTAADTAVYYCASLTAYWGQGSLVTVSSASTKGPSVFPLAPSSKSTSGGTAALGCLVKDYFPEPVTVSWNSGALTSGVHTFPAVLQSSGLYSLSSVVTVPSSSLGTQTYICNVNHKPSNTKVDKRVEPKSCDKTHTCPPCPAPEFERGPSVFLFPPKPKDTLMISRTPEVTCVVVDVSHEDPEVKFNWYVDGVEVHNAKTKPREEQYNSTYRVVSVLTVLHQDWLNGKEYKCKVSNKALPAPIEKTISKAKGQPREPQVYTLPPSREEMTKNQVSLTCLVKGFYPSDIAVEWESNGQPENNYKTTPPVLDSDGSFFLYSRLTVDKSRWQQGNVFSCSVMHEALHNHYTQKSLSLSPG
light: DIQMTQSPTSLSASVGDRVTITCRASQGISSWLTWYQQKPEKAPKSLIYAASSLQSGVPSRFSGSGSGTDFTLTISSLQPEDFATYYCQQYDSYPITFGQGTRLEIKRTVAAPSVFIFPPSDEQLKSGTASVVCLLNNFYPREAKVQWKVDNALQSGNSQESVTEQDSKDSTYSLSSTLTLSKADYEKHKVYACEVTHQGLSSPVTKSFNRGEC
notes: Monospecific, bivalent parental antibody; also called IgG1-huCD30-MDX060-FERR
For B3, the “EC50 (read off the curve)” value (human CD30 [5]) was roughly 0.09 mg/L and the “EC50 (read off the curve)” value (human CD30 [6]) was roughly 0.05 mg/L.

B4: bsG1-huCD3-FEAL×CD30-T405-FEAR (bispecific antibody, human IgG1, kappa, lambda)
heavy 1: not shown
light 1: not shown
heavy 2: QVQLQQIGAELVRPGASVKLSCKASGYTFNNYWINWVKQRPGQGLEWIGNIYPSDSRSNYNQKFKDKATLTVDKPSSTAYMQLSSPTSEDSAVYYCTLGSYWGQGTLVTVSAASTKGPSVFPLAPSSKSTSGGTAALGCLVKDYFPEPVTVSWNSGALTSGVHTFPAVLQSSGLYSLSSVVTVPSSSLGTQTYICNVNHKPSNTKVDKRVEPKSCDKTHTCPPCPAPEFEGGPSVFLFPPKPKDTLMISRTPEVTCVVVAVSHEDPEVKFNWYVDGVEVHNAKTKPREEQYNSTYRVVSVLTVLHQDWLNGKEYKCKVSNKALPAPIEKTISKAKGQPREPQVYTLPPSREEMTKNQVSLTCLVKGFYPSDIAVEWESNGQPENNYKTTPPVLDSDGSFFLYSRLTVDKSRWQQGNVFSCSVMHEALHNHYTQKSLSLSPG
light 2: DVVMTQTPLTLSVTIGQPASISCKSSQSLSDSDGKTYLNWLLQRPGQSPKRLIYLVSKLDSGVPDRFTGSGSGTDFTLKISRVEAEDLGVYYCWQGAHFPRTFGGGTKLEIKRTVAAPSVFIFPPSDEQLKSGTASVVCLLNNFYPREAKVQWKVDNALQSGNSQESVTEQDSKDSTYSLSSTLTLSKADYEKHKVYACEVTHQGLSSPVTKSFNRGEC
notes: Bispecific IgG1 by Fab-arm exchange of the two parental antibodies; also called bsIgG1-huCD3-FEAL×CD30-T405-FEAR
In the case of B4, the “cytotoxicity IC50 (µg/mL) average, Karpas-299 cells” value (human CD30 [7]) is reported as 0.078 µg/mL, the “cytotoxicity maximum lysis (%) average, Karpas-299 cells” value (human CD30 [7]) is reported as 41.7% and the binding result [8] is reported as “binds”.

B5: bsG1-huCD3-FEAL×CD30-HeFi-I-FEAR (bispecific antibody, human IgG1, kappa, lambda)
heavy 1: not shown
light 1: not shown
heavy 2: EVKLVESGGGLVQPGGSLRLSCATSGFTFSDYYMNWVRQPPGKALEWLGFIRNKANGYTTEFSASVMGRFTISRDDSQSILYLQMNTLRAEDSATYYCARDPPYGNPHYYAMDYWGQGTSVTVSSASTKGPSVFPLAPSSKSTSGGTAALGCLVKDYFPEPVTVSWNSGALTSGVHTFPAVLQSSGLYSLSSVVTVPSSSLGTQTYICNVNHKPSNTKVDKRVEPKSCDKTHTCPPCPAPEFEGGPSVFLFPPKPKDTLMISRTPEVTCVVVAVSHEDPEVKFNWYVDGVEVHNAKTKPREEQYNSTYRVVSVLTVLHQDWLNGKEYKCKVSNKALPAPIEKTISKAKGQPREPQVYTLPPSREEMTKNQVSLTCLVKGFYPSDIAVEWESNGQPENNYKTTPPVLDSDGSFFLYSRLTVDKSRWQQGNVFSCSVMHEALHNHYTQKSLSLSPG
light 2: not shown
notes: Bispecific IgG1 by Fab-arm exchange of the two parental antibodies; also called BsIgG1-huCD3-FEAL×CD30-HeFi-I-FEAR
B5 was tested, and the binding result [9] was “no binding (tested: 10 µg/mL)”, the “cytotoxicity IC50 (µg/mL) average, Karpas-299 cells” value (human CD30 [7]) was 0.052 µg/mL and the “cytotoxicity maximum lysis (%) average, Karpas-299 cells” value (human CD30 [7]) was 43%.

B6: IgG1-CD30-HeFi-I-FEAR (antibody, V domains shown)
VH: EVKLVESGGGLVQPGGSLRLSCATSGFTFSDYYMNWVRQPPGKALEWLGFIRNKANGYTTEFSASVMGRFTISRDDSQSILYLQMNTLRAEDSATYYCARDPPYGNPHYYAMDYWGQGTSVTVSS
VL: DIVLTQSPASLAVSLGQRATISCRASKSVSASGYNYMHWYQQKAGQPPKLLIHLASNLESGVPARFSGSGSGTDFTLNIHPVEEEDASTYYCQHSGELPFTFGSGTKLEIKR
notes: as for B1
B6: no binding (tested: 10 µg/mL) [9].
